System: MS2 coat protein
Assay: apparent KD of MS2 coat protein; designed switch direction (-1 OFF switch, 1 ON switch): 1; higher = weaker reporter binding
Outline: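 Designed RNA switches with common flanks were transcribed on Illumina chips by stalled E. coli RNA polymerase and titrated with SNAP-549-labelled MS2 coat protein, from 0.7 or 1.5 nM doubling to 3 µM, in Tris-HCl pH 7.5 buffer with KCl, MgCl2, BSA, DTT, tRNA and Tween-20. Steps lasted 0.8–1.5 h (lowest) to 10–20 min (highest). Titrations ran without input, with 200 uM small-molecule ligand, or with an oligonucleotide input. Normalised cluster fluorescence was curve-fitted, and apparent KD is the per-design median over clusters.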

[1] = input ligand: microRNA oligo, concentration not stated
[2] = Eterna round: R95, input ligand: FMN 200 uM
[3] = Eterna round: R95, input ligand: microRNA oligo, concentration not stated
[4] = Eterna round: R95, input ligand: none

Row | Sequence | apparent KD of MS2 coat protein (input ligand: FMN 200 uM) | apparent KD of MS2 coat protein [1] | apparent KD of MS2 coat protein (input ligand: none) | apparent KD of MS2 coat protein [2] | apparent KD of MS2 coat protein [3] | apparent KD of MS2 coat protein [4]
1 | GCUAGGAUAUGCAGAGGAUCACCCUGUAGAAGGAGCAUUAGCUAGGAUAUGCAGAGGAUCACCCUGUAGAAGGAGCACUACUCU [pwkr ssNG3 DX 2xF5 +2xFMN.1] (Eterna round: R96, puzzle: Same State NG 3) | 445 nM | 205 nM | 248 nM | – | – | –
2 | AAUCGUUUGAUAGGAUAUCGCUAUACAUGAGGAUCACCCAUGUUUACCACGCUGGUUUUUCGUACCGAGAAGGAUUCUGAUGAU [JL JR sub007 mod 4] (Eterna round: R96, puzzle: Same State NG 2) | 36 nM | 25.4 nM | 36.1 nM | – | – | –
3 | ACAUAGGUUUCAGGAUAUGGGUAAAUUCCCUACAUGAGGAUCACCCAUGUCCGUAGGGAUAACAUCCAGAAGGGAAGCCACAUA [MOD3 Eternabot Solution 1 (Score 87.5)] (Eterna round: R96, puzzle: Same State NG 2) | 175 nM | 144 nM | 221 nM | – | – | –
4 | GCCGGCUGGUGAGGAUAUGGCGCCUUAUUGGUGCCAGAAGGCAUGUCAAUUGACAUGAGGAUCACCCAUGUGUUGUCGUUGGCG [salish99_SSNG1_r04_610] (Eterna round: R96, puzzle: Same State NG 1) | 695 nM | 357 nM | 353 nM | – | – | –
5 | GCUGGAAACCACAUGAGGAUCACCCAUGUUCCGGAAACGGCACAGGAUAUCUGUCCGAAAAGGUCAGAGAAGGGUGGAACCAGC [Fiskers NG3ss - 82] (Eterna round: R96, puzzle: Same State NG 3) | 221 nM | 350 nM | 393 nM | – | – | –
6 | AGUCCAGCGAAAGCUGGACAAAAGUAUGUACAUGAGGAUCACCCAUGUUCAUGUACAAGCUUUUUGCUCGUUUUAAA [JL mod - D95 - 19] (puzzle: Sensor for hsa-mir-208a) | – | – | – | 814 nM | 48.1 nM | 928 nM
7 | GAGCUCGUGUGAGGAUAUGCCGCCGUUUCGGCUGCAGAAGGUGCUACGUUACAUGAGGAUCACCCAUGUCUCUGUUGUUUCGUU [salish99_SSNG1_r04_959] (Eterna round: R96, puzzle: Same State NG 1) | 18.5 nM | 17 nM | 24.9 nM | – | – | –
8 | AGGCAAGCUUUUUGCUGGUAUGGAGGAUAACAUGAGGAUCACCCAUGUAUUGGAGGUGUUGUGGAUUUGAGAAAGAA [JR_SHM208A_Sub004] (puzzle: Sensor for hsa-mir-208a) | – | – | – | 74 nM | 94.6 nM | 103 nM
9 | GGAGCCGGCCUAGGAUAUUUCAUUAUUAAACAUGAGGAUCACCCAUGUAGGCCAGAAGGCCUUGGGAAGAAGGAGGUCGGCUCC [Loop Effect - U24,U26,U28] (Eterna round: R96, puzzle: Same State NG 2) | 17.1 nM | 49.6 nM | 68.5 nM | – | – | –
10 | AGCUAUUACGAAGGAUAUUCUGACAUGAGGAUCACCCAUGUCUUCAUGAUUUAUUGUGAUCACAUGAAGAAGGUUGUACUAACA [SameState NG2 #25] (Eterna round: R96, puzzle: Same State NG 2) | 106 nM | 130 nM | 93.1 nM | – | – | –
11 | GGAGCCGGCCUAGGAUAUUUCAUAAUUUAACAUGAGGAUCACCCAUGUAGGCCAGAAGGCCUUGGGAAGAAGGAGGUCGGCUCC [Loop Effect - U26,U27,U28] (Eterna round: R96, puzzle: Same State NG 2) | 17.4 nM | 53.6 nM | 76.9 nM | – | – | –
12 | GUGGCCUAGGCACAGGAUAUGUUUCUCGUAACAUGAGGAUCACCCAUGUGCCUUUGAGAUUUUAUGCAGAAGGGUGCACGCCACG [JL Atiinbe mod 04] (Eterna round: R96, puzzle: Same State 2) | 21.1 nM | 214 nM | 425 nM | – | – | –
13 | AUAAUUAAUGCAGGAUAUGAUUAACAUGAGGAUCACCCAUGUGGUGUUGUGAGUAAGGAGAGUGAUCAGAAGGGCAUUUUUUUU [JMF's solution 33] (Eterna round: R96, puzzle: Same State NG 2) | 666 nM | 298 nM | 343 nM | – | – | –
14 | AUAAAACAUGAGGAUCACCCAUGUCAACAAAGUCGAGGAUAUGGGCAAAUAAAAUAAGAACCAGAAGGCGAAUAUU [salish99_ss1_r3_037] (Eterna round: R96, puzzle: Same State 1) | 43.8 nM | 262 nM | 261 nM | – | – | –
15 | AGAGCCGGCACUGAGGAUAUUCAUAAUAAAACAUGAGGAUCACCCAUGUAGGCCAGAAGGCCUUGGGAGAAGGCAGGUCGGCUCG [Mat - Same State 2 - Mod of UCT - D68] (puzzle: Same State 2) | – | – | – | 17.3 nM | 122 nM | 200 nM
16 | ACAAGCUUUUUAGGAGAGAAAGGAGGGAAACAUGAGGAUCACCCAUGUAUGGUAGUGAAUAGAGGAACUCGUCUUAU [JR_SHM208A_Sub080] (puzzle: Sensor for hsa-mir-208a) | – | – | – | 90.5 nM | 25.6 nM | 152 nM
17 | GAGUGAUGGGUUAGUAACUGCUGGGAAGGACAUGAGGAUCACCCAUGUGAGUAGCGAGCUUGUGCUCGUCUUAUUAG [JR_SHM208A_Sub023] (puzzle: Sensor for hsa-mir-208a) | – | – | – | 207 nM | 114 nM | 379 nM
18 | AUUACUAACAUAGGAUAUCAUGCGAAAAUUGCGUGAGAAGGGUGGACGCUGUCAUUCACGGAAGACAUGAGGAUCACCCAUGUC [SameState NG1 #73] (Eterna round: R96, puzzle: Same State NG 1) | 170 nM | 70.5 nM | 119 nM | – | – | –
19 | GUUACAUGAGGAUCACCCAUGUAUGUGUGGGAGUAAGUGUCUUAGGAUAUCUAGUAUUUAAUUGAAGAGAAGGAAGAUUGUUGU [JMF's solution 67] (Eterna round: R96, puzzle: Same State NG 3) | 109 nM | 87.2 nM | 108 nM | – | – | –
20 | CUGAGCGAUCUAGGAUAUCACGUCGUUUAGACGUGAGAAGGAGAUCAUAACAUGAGGAUCACCCAUGUAUUACAUGAAGCUCAG [SSNG1/6-A3] (Eterna round: R96, puzzle: Same State NG 1) | 14.9 nM | 16.9 nM | 19.1 nM | – | – | –
21 | UGGAUCUAGGCUUGCCUGGGUCCAUGCUGACAUGAGGAUCACCCAUGUGCAUUCUAUAAGCUUUUUGCUUGUCAGCU (puzzle: Sensor for hsa-mir-208a) | – | – | – | 373 nM | 91 nM | 441 nM
22 | UCUGCUGCCCAAGGAUAUCAGCGUGGUAUCCACAUGAGGAUCACCCAUGUAGGUCAGCACUACCCUGAGAAGGUGGGAAAAUAA [Eternabot solution 2] (Eterna round: R96, puzzle: Same State NG 2) | 14.4 nM | 10.6 nM | 15.1 nM | – | – | –
23 | AUUAUACAUGAGGAUCACCCAUGUAAUUAAUUAAUUAAGAUCUAGGAUAUCAGCUCGAUUAGAGCUGAGAAGGAGAUCACAUGU [SSNG3/20-C2] (Eterna round: R96, puzzle: Same State NG 3) | – | 21.2 nM | – | – | – | –
24 | GAGAGAGGGUGAGGAUAUGGAGUAAUAAUGAUACCAGAAGGCACAGACAUGAGGAUCACCCAUGUGGGAAUAAUCCAGAGAGAG [Parity 7 - Jieux - Same State NG 1] (Eterna round: R96, puzzle: Same State NG 1) | 506 nM | 177 nM | 264 nM | – | – | –
25 | CCGAUUUAUGGAGGAUAUGGAGCCUUAUUGGCUCCAGAAGGUCAAUAAACAUGAGGAUCACCCAUGUCGGCGGUCAAUAGACCG [Eli NG1ss - 71] (Eterna round: R96, puzzle: Same State NG 1) | 103 nM | 84.4 nM | 180 nM | – | – | –
26 | AUUAAUAAUCUAGGAUAUCACGUCGAAUAGACGUGAGAAGGAGAUCAUAACAUGAGGAUCACCCAUGUAUUACAUGAAGUUAAU [SSNG1/7-B1] (Eterna round: R96, puzzle: Same State NG 1) | 27.5 nM | 29.9 nM | 34.8 nM | – | – | –
27 | AUUGCUAUCACAGGAUAUCAUGCGGAAAUCGCGUGAGAAGGGUGGACUCUGUCAUUCACGGAGGACAUGAGGAUCACCCAUGUC [SS NG10LRO17] (Eterna round: R96, puzzle: Same State NG 1) | 612 nM | 18.4 nM | 36.3 nM | – | – | –
28 | AAGAAACAUGAGGAUCACCCAUGUAAGAUAAACACAGGAUAUGCGAAUAAAAUAAAUAAAGCAGAAGGGUGAAGAA [Mat - Same State 1 - Tesla mod - D150] (Eterna round: R96, puzzle: Same State 1) | – | 38.9 nM | – | – | – | –
29 | GCUAGUAUUAUUGCUAACAUGAGGAUCACCCAUGUAUGUUGGCAGGAUAUCGUUUGCUUUGCAAACGAGAAGGGCUAAACUAGC [JL SSNG3 1.05] (Eterna round: R96, puzzle: Same State NG 3) | 25.8 nM | 65.4 nM | 71.7 nM | – | – | –
30 | UGCCUGAGUCGAGGAUAUUAUGGAUCCUUUAAUACAUGAGGAUCACCCAUGUAAUUAAUUAUACAUGAGAAGGCGACUCAGGCA [SSNG2/11-A2] (Eterna round: R96, puzzle: Same State NG 2) | 17.4 nM | 97 nM | 90.1 nM | – | – | –
